Legend:
Experiment in all cases: ELISA; indirect ELISA; VLP coated at 1 µg/mL on 384-well plates at 4 °C overnight, blocked with 5% nonfat dry milk in PBS with 0.05% Tween-20; mAb normalised for antigen-binding sites, from 500 nM with 11 serial dilutions; detection with anti-κ or -λ secondary antibodies
Details in all cases: both partners purified
[1] = molecular target: T1, HuNoV GII.3 virus-like particle (Norovirus Hu/GII.3/TCH-104/USA/2002 …, UniProt S4VLU9, strain)
T1 construct: also called GII.3 VLP

[2] = molecular target: T2, HuNoV GII.6 virus-like particle (Norwalk-like virus …, UniProt Q918A7, strain)
T2 construct: also called GII.6 VLP

[3] = molecular target: T3, HuNoV GII.13 virus-like particle (Norovirus Hu/GII.13/VA173/2010/USA, strain)
T3 construct: also called GII.13 VLP
T3 chain: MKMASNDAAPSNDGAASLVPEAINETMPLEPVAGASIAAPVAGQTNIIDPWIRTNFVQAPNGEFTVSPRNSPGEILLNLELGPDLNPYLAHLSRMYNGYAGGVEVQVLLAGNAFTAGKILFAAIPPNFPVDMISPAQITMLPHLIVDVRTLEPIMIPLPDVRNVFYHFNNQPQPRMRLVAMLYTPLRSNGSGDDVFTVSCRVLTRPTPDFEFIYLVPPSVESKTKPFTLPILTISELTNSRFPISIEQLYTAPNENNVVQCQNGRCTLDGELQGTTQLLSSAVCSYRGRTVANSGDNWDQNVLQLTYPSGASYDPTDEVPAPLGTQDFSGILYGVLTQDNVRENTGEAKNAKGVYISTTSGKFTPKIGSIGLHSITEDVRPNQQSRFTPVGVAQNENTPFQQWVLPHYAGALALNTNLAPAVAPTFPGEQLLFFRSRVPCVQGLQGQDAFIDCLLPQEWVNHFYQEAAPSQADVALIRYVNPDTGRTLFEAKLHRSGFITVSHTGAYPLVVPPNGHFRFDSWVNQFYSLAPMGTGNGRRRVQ

[4] = molecular target: T4, HuNoV GII.17 virus-like particle (Norovirus …, strain)
T4 construct: also called GII.17 VLP
T4 chain: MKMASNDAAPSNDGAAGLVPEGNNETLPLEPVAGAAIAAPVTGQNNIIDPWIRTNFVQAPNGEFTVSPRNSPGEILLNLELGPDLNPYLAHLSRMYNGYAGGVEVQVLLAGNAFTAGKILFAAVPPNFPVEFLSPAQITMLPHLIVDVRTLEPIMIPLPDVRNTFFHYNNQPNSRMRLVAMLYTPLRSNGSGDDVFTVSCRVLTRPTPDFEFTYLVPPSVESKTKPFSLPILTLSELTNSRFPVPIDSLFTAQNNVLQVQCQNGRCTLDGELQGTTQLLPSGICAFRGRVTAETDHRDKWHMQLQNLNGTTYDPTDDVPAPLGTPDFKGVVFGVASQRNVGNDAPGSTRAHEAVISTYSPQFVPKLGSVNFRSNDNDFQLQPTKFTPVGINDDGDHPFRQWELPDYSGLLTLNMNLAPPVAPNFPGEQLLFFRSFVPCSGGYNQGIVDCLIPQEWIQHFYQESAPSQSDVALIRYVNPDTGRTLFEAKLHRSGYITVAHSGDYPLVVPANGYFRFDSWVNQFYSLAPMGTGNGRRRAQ

Measured: binding result

B1: NORO-320 IgA (hybridoma-secreted dimeric IgA) (antibody, V domains shown)
VH: QVQLVQSGPEVKKPGSSVKVSCKASGGTVSSYAISWVRQAPGQGLEWMGGIIPIFDTTNYAQKFQGRVTITADESTGTSDMELSSLRSEDTAVYYCARDRVPSYSPSRRFSTKGAMWGKYGMDVWGQGTLVTVSS
VL: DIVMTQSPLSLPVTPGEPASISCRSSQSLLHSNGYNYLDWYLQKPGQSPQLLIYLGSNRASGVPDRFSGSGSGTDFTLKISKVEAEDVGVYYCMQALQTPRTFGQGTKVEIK
notes: also called mAb NORO-320; Hyb dimeric IgA
binds: all assays above

Source: PMC8280134, “Broadly cross-reactive human antibodies that inhibit genogroup I and II noroviruses” (Nature Communications, 2021)
